In PMC3944073:

Target: GFP-β-DGNLS fusion protein
Experiment: AlphaScreen or HTRF; ALPHAScreen; His6-tagged GFP-β-DG-NLS at a fixed amount per well with increasing GST-ezrin, GST-IMPα2/β1 or GST alone (0-60 nM); nickel chelate acceptor beads and streptavidin donor beads; room temperature; apparent dissociation constants from sigmoidal fits

- Kd: 2.22 nM
Substance: GST-ezrin (mouse) (from UniProt P26040 1-586) (natural protein)
